Data on 1 substance can be found in PMC7886694.

The subject of series [1] is His-GlnR (Mycobacterium smegmatis). Kind of series: BLI. To be noted: 37 C, 200 mM KCl, 2 mM Mg2+, BLI: 10 mM HEPES pH 8.0, 2 mM MgCl2, 0.1 mM EDTA, 10 ug/ml BSA, 0.02% Tween-20 (running buffer), EMSA: 2 ng biotin probe in 10 uL, Beyotime ….
For the next series, the system named is His-PrpR. The series can be described thus: BLI. To be noted: 37 C, 200 mM KCl, 2 mM Mg2+, BLI: 10 mM HEPES pH 8.0, 2 mM MgCl2, 0.1 mM EDTA, 10 ug/ml BSA, 0.02% Tween-20 (running buffer), EMSA: 2 ng biotin probe in 10 uL, Beyotime ….

Picl (Msm icl promoter): the Kd in series [1] worked out at 0.0337 µM; in the series with His-PrpR, 0.171 µM.
